Publication PMC4233142

Biological target: YFPC-2aCore (hepatitis C virus genotype 2a (JFH-1)) (UniProt Q99IB8)
Experiment: split reporter

In the case of “YFPN-2a5B (from UniProt Q99IB8 2443-3033) (natural protein)”, the percent of RFP-expressing cells that also expressed YFP is reported as 43%.
